Results as given in patent US20220332804A1 (CSL INNOVATION, published 2022).

How the values were obtained:
Test in all cases: SPR, antibody captured, C2 as analyte;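 note: biacore at 37 °C, anti-C2 mAbs held by immobilised goat anti-human IgG, C2 alanine or serine mutants injected, double-referenced sensorgrams fitted to a 1:1 kinetic or steady-state model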
[1] = target: T1, human C2 K329A (human, UniProt P06681 21-752)
T1 sequence: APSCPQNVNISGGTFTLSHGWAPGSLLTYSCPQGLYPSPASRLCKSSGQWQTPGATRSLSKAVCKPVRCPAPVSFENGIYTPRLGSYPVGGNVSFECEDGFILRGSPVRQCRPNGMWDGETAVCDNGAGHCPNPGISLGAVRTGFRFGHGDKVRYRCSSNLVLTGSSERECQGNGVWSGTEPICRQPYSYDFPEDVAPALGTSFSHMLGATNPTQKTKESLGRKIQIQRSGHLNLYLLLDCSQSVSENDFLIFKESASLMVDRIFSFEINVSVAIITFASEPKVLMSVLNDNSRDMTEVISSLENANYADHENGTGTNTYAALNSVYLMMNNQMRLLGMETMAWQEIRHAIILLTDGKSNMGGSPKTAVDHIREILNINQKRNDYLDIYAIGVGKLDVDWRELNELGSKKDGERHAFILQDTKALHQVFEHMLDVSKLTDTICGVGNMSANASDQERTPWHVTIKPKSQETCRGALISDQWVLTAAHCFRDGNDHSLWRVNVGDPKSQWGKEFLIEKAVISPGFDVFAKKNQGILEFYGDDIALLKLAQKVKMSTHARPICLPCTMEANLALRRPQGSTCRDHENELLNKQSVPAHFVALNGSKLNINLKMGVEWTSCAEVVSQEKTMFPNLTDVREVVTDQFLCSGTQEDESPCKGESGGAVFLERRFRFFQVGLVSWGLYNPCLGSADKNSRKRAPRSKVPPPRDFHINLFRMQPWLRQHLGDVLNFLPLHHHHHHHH

[2] = target: T2, human C2 D404A (human, UniProt P06681 21-752)
T2 sequence: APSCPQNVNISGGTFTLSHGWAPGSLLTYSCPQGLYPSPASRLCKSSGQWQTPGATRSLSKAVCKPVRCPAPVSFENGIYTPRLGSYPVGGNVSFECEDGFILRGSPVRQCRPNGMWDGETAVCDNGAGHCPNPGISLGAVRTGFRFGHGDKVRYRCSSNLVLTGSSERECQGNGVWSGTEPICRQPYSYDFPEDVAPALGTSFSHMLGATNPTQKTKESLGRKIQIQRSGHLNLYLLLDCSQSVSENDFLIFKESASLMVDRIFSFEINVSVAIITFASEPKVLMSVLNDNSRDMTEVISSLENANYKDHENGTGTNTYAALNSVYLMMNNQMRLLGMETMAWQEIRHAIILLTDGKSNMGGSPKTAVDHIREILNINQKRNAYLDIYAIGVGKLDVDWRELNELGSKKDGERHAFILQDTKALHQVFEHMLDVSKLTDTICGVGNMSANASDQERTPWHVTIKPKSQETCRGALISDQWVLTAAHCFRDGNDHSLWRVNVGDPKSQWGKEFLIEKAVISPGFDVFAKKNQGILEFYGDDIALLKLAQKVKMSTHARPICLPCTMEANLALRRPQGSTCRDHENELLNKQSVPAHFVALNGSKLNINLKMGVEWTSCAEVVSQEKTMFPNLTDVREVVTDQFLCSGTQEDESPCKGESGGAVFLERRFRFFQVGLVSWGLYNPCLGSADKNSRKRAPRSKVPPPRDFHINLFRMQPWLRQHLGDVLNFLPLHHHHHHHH

[3] = target: T3, human C2 D282A (human, UniProt P06681 21-752)
T3 sequence: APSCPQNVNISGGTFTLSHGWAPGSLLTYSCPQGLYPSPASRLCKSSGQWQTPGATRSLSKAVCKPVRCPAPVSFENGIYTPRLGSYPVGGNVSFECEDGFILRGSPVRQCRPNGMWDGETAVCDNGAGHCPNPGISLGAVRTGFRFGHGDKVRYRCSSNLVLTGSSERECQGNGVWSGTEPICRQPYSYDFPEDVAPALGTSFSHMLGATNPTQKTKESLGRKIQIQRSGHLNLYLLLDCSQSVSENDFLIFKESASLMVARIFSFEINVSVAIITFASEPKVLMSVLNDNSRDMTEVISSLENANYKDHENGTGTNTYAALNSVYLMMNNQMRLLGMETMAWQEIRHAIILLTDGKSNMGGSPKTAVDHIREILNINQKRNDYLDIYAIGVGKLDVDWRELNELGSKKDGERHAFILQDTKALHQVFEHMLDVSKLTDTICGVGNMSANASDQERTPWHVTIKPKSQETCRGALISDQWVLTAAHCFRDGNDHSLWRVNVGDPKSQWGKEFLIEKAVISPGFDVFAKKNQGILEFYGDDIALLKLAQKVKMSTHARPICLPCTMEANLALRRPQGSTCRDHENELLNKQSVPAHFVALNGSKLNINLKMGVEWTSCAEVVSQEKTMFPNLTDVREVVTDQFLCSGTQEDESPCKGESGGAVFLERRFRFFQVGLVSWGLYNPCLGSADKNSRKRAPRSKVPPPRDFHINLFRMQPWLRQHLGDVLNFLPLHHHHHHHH

[4] = target: T4, human C2 K443A (human, UniProt P06681 21-752)
T4 sequence: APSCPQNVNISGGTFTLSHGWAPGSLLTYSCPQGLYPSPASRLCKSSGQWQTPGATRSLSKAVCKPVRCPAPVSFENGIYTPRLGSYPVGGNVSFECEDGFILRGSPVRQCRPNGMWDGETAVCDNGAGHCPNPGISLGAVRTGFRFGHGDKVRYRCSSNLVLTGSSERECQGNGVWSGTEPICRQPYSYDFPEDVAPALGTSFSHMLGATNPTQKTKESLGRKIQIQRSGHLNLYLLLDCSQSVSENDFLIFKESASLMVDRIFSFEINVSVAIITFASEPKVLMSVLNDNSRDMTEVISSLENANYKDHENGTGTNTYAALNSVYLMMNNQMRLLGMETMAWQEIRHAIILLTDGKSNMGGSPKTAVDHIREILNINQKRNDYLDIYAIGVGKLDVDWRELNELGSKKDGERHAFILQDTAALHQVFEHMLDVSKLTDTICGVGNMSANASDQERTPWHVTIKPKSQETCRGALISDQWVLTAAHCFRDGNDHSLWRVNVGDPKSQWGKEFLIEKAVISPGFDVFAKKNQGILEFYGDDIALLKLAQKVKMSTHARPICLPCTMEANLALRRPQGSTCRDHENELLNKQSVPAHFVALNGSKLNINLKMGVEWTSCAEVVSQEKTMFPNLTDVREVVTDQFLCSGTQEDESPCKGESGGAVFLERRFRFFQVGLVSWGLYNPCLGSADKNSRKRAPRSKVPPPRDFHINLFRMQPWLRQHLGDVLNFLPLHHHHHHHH

B1: RF16-242 (antibody, human IgG4 S228P, lambda, V domains shown)
VH: EVQLLQSGAEVKKPGESLKISCKGSGYSFTSYWIGWVRQMPGKGLEWMGIIYPGDSDTRYSPSFQGQVTISADKSISTAYLQWSSLKASDTAMYYCARRGHYGDYFDYWGQGTLVTVSS
VL: SYELTQPPSVSVSPGQTARITCSGDALPKKYAYWYHQKSGQAPVLVIYEDRRRPSEIPERFSGSSSGTMATLTITGAQVEDEGVYFCYSRDRAGNQRVFGGGTQLTVLG
notes: pH-dependent anti-C2 antibody from a phage display library
- Kd [1]: 14.8 nM
- Kd [2]: 16.4 nM
- Kd [3]: 8 nM
- binding result [4]: no binding
